According to patent US8710008B2, “Compounds, compositions and use” (Universitetet I Oslo, priority 2008, dated 2014):
Like-named read-outs stand apart in the source and are kept apart here. Each block holds one molecule with its values, some of them ahead of it. Positions of bridges follow the written chain, without caps; N, C: chain ends. *: point of attachment. Boc = CC(C)(C)OC(=O)*

How the values were obtained:
[1] = test system: crude membranes from rat cerebellum; experiment: Radioligand binding assay of [3H]peptide on crude membranes from rat cerebellum
Experimental: The radiolabelled compound denoted [3H]peptide was custom synthesised from the unsaturated precursor 29 (Example 27) by Perkin Elmer Health Sciences Inc., 549 Albany Street, Boston, Mass. 02118, U.S.A. The radioactive compound was received as an EtOH solution. The total activity of the sample was 1 mCi. and the radiological concentration was 2 mCi/mL. The specific activity was 42.9 Ci/mmol and the radiochemical purity (determined by HPLC) 99.8%. The specific activity was determined by mass spectrometry.
Female Wistar rats weighing 250-300 g (Mollegaard, Ejby, Denmark) were used. Experimental protocols conform to National Institutes of Health guidelines for the care and use of animals.
Brain cerebella (1:5 wt/vol) in ice cold 0.3 M sucrose, 50 mM Hepes, pH 7.4, 2 mM EDTA, protease inhibitors (Complete; Roche, Mannheim, Germany) were homogenised in clay-beads-containing tubes by Fastprep shaker and centrifuged at 1,000 g for 10 min at 4° C. The supernatant was spun down at 42,000 g for 60 min at 4° C. […] Protein concentration was determined by the DC Protein Assay Kit (Bio-Rad). […]
Binding data were analysed by non-linear regression using Microsoft Excel with the Solver add-in. The non-specific binding was assumed to be linear as a function of the concentration of free [^3H]peptide and analysed by linear regression. […]

AQP4 [2] = biological target: T1, AQP4 (Homo sapiens, UniProt P55087); conditions: cited from earlier work
T1 sequence (P55087 whole entry, species assumed): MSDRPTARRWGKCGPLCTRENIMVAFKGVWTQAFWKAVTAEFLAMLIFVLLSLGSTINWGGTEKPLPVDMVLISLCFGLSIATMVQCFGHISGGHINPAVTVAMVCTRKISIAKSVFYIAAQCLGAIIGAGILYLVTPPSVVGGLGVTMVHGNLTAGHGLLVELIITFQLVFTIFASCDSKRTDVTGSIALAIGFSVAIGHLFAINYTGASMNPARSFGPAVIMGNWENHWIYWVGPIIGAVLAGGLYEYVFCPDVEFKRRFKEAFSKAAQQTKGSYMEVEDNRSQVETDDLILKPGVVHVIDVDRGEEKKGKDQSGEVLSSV

AQP1 = biological target: T2, AQP1 (Homo sapiens, UniProt P29972); conditions: cited from earlier work
T2 sequence (P29972 1-269): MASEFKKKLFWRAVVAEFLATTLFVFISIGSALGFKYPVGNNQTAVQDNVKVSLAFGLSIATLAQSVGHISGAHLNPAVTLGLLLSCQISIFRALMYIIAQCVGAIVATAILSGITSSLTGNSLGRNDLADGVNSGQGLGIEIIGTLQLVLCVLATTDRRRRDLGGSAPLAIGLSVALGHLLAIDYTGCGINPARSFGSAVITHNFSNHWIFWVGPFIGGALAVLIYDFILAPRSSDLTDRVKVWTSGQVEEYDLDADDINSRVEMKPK

AQP4 [3] = biological target: T1, AQP4; conditions: liposome-based assay; cited from earlier work
[4] = biological target: crude membranes from rat cerebellum (rat); experiment: radioligand saturation binding, non-linear regression, unweighted fit
[5] = biological target: crude membranes from rat cerebellum (rat); experiment: radioligand saturation binding, filter assay, crude membranes
[6] = biological target: crude membranes from rat cerebellum (rat); experiment: radioligand saturation binding, non-linear regression, fit weighted 1/Y
[7] = biological target: crude membranes from rat cerebellum (rat); experiment: radioligand saturation binding, non-linear regression, fit weighted 1/Y^2

Molecule: [^3H]peptide: radiolabelled compound custom synthesised from the unsaturated precursor 29 (Example 27); specific activity 42.9 Ci/mmol (Boc-PPSVVSG-OMe; bridge 3-6; not fully specified (bridges); also: tritium label)
Specific binding ([1]; difference without and with 100 μM unlabelled peptide): 0.5-1 pmol/mg membrane protein
Kd ([1]; specific binding, non-specific defined with 100 μM unlabelled peptide, read-out: Kd value (affinity)): 100 to 200 nM

Molecule: CC(=O)Nc1nnc(S(N)(=O)=O)s1 [Acetazolamide]
Effect on water permeation through AQP4 (AQP4 [2]; Y. Tanimura et al. 2009): reversibly inhibits
IC50 (AQP4 [2]; Y. Tanimura et al. 2009, read-out: IC50 of inhibition of water permeation through AQP4): > 1 mM
Effect on water permeation through AQP1 (AQP1; Y. Tanimura et al. 2009): not through AQP1

Molecule: CC[N+](CC)(CC)CC [tetraethylammonium ions, tetraethylammonium]
Effect on AQP4 (AQP4 [2]; up to 10 mmolar concentration, B. Yang et al. 2006): no effect
Effect on AQP1 (AQP1; R. Søgaard et al. 2008): no effect

Molecule: [Cl][Hg][Cl] [mercury chloride]
Effect on AQP4 (AQP4 [3]): inhibit AQP4

Bmax [4]: 2140 cpm
Bmax (fmol/mg protein) [4]: 1120
Kd [4]: 107 nM
Kd [5]: 100 to 200 nM
specific binding (Bmax) (pmol/mg membrane protein) [5]: 0.5 to 1
Bmax [6]: 1920 cpm
Bmax (fmol/mg protein) [6]: 1000
Kd [6]: 92.7 nM
Bmax [7]: 1920 cpm
Bmax (fmol/mg protein) [7]: 1000
Kd [7]: 92.7 nM
B1: [3H]peptide (radiolabelled compound 35, custom synthesised from the unsaturated precursor 29 of Example 27) (peptide)
peptide: Boc-PPSVVSG-OMe
modifications: bridge 3-6; also: tritium label
